System: p110β/p85β-nic
Assay: ATPase activity (ADP formation) in the absence of lipid substrate, Transcreener
Format: biochemical, mouse
Details: 35 nM complex; Figure 1D
Method: Figure 1 Inhibition of p110β by p85-Type Regulatory Subunits and Activation of the Complexes by RTK Phosphopeptide (A) Domain organization of p110β and the regulatory subunits p85α, p85β, and p55γ. The color scheme for the domains is used for all figures, unless otherwise stated. […] The inhibition is released upon addition of the 10 μM PDGFR pY2. […] The y axis is expressed as a change in fluorescence polarization (ΔmP), which is obtained by subtracting the observed polarization for the construct at a given enzyme concentration from the maximum fluorescence polarization for that construct. The plateau in these assays arises due to the competitive nature of the ADP detection system, based on displacement of ADP-Alexa 633 tracer from the ADP^2-antibody by ADP generated during the PI3K assay (see Supplemental Experimental Procedures). All measurements were done in triplicates, and the error bars indicate the standard error of the mean (SEM). […]
The lipid kinase activity was determined using the Transcreener ADP2 FP Assay (BellBrook Labs, Madison, WI) according to manufacturer‟s specifications. This non-radioactive assay measures activity by quantitating the amount of ADP formed. The ADP formed by PI3K competes with fluorescent ADP tracer for binding to an anti-ADP antibody, thereby decreasing fluorescence polarization. […]

B1: p110β-ΔCter/nic: truncation mutant lacking 17 residues from the p110β C terminus; human ΔCter (1-1053) used in cells (protein, UniProt P42338 1-1053, looked up, fragment)
chain: MCFSFIMPPAMADILDIWAVDSQIASDGSIPVDFLLPTGIYIQLEVPREATISYIKQMLWKQVHNYPMFNLLMDIDSYMFACVNQTAVYEELEDETRRLCDVRPFLPVLKLVTRSCDPGEKLDSKIGVLIGKGLHEFDSLKDPEVNEFRRKMRKFSEEKILSLVGLSWMDWLKQTYPPEHEPSIPENLEDKLYGGKLIVAVHFENCQDVFSFQVSPNMNPIKVNELAIQKRLTIHGKEDEVSPYDYVLQVSGRVEYVFGDHPLIQFQYIRNCVMNRALPHFILVECCKIKKMYEQEMIAIEAAINRNSSNLPLPLPPKKTRIISHVWENNNPFQIVLVKGNKLNTEETVKVHVRAGLFHGTELLCKTIVSSEVSGKNDHIWNEPLEFDINICDLPRMARLCFAVYAVLDKVKTKKSTKTINPSKYQTIRKAGKVHYPVAWVNTMVFDFKGQLRTGDIILHSWSSFPDELEEMLNPMGTVQTNPYTENATALHVKFPENKKQPYYYPPFDKIIEKAAEIASSDSANVSSRGGKKFLPVLKEILDRDPLSQLCENEMDLIWTLRQDCREIFPQSLPKLLLSIKWNKLEDVAQLQALLQIWPKLPPREALELLDFNYPDQYVREYAVGCLRQMSDEELSQYLLQLVQVLKYEPFLDCALSRFLLERALGNRRIGQFLFWHLRSEVHIPAVSVQFGVILEAYCRGSVGHMKVLSKQVEALNKLKTLNSLIKLNAVKLNRAKGKEAMHTCLKQSAYREALSDLQSPLNPCVILSELYVEKCKYMDSKMKPLWLVYNNKVFGEDSVGVIFKNGDDLRQDMLTLQMLRLMDLLWKEAGLDLRMLPYGCLATGDRSGLIEVVSTSETIADIQLNSSNVAAAAAFNKDALLNWLKEYNSGDDLDRAIEEFTLSCAGYCVASYVLGIGDRHSDNIMVKKTGQLFHIDFGHILGNFKSKFGIKRERVPFILTYDFIHVIQQGKTGNTEKFGRFRQCCEDAYLILRRHGNLFITLFALMLTAGLPELTSVKDIQYLKDSLALGKSEEEALKQFKQKFDEALRESW
Q: For B1, which “ATPase activity in the absence of lipid substrate” value is on record?
A: Its value is “increased”.
